Earlier results in paper PMC3985519.

Molecular target: von Willebrand factor (Homo sapiens) (UniProt P04275)

In the case of Factor VIII (from UniProt P00451), the Kd is listed as 0.5 nM.
